Sequences and labels used below:
B1: Ramazzottius varieornatus damage suppressor protein (Rv Dsup) [Ramazzottius varieornatus] / mononucleosomes reconstituted by salt dialysis with purified recombinant Drosophila core histones [Drosophila] (parent)
chain 1: MASTHQSSTEPSSTGKSEETKKDASQGSGQDSKNVTVTKGTGSSATSAAIVKTGGSQGKDSSTTAGSSSTQGQKFSTTPTDPKTFSSDQKEKSKSPAKEVPSGGDSKSQGDTKSQSDAKSSGQSQGQSKDSGKSSSDSSKSHSVIGAVKDVVAGAKDVAGKAVEDAPSIMHTAVDAVKNAATTVKDVASSAASTVAEKVVDAYHSVVGDKTDDKKEGEHSGDKKDDSKAGSGSGQGGDNKKSEGETSGQAESSSGNEGAAPAKGRGRGRPPAAAKGVAKGAAKGAAASKGAKSGAESSKGGEQSSGDIEMADASSKGGSDQRDSAATVGEGGASGSEGGAKKGRGRGAGKKADAGDTSAEPPRRSSRLTSSGTGAGSAPAAAKGGAKRAASSSSTPSNAKKQATGGAGKAAATKATAAKSAASKAPQNGAGAKKKGGKAGGRKRK
chain 2: not shown
chain 3: not shown
chain 4: not shown
chain 5: not shown

In the first experiment the parent is B1. The experiment is described as follows: gel mobility shift. To be noted: Dsup/Nucleosome 3.0, mononucleosome, 5S rDNA sequence (147 bp), parent: 73.
Consider chain 1 R363E R364E R367E, for which the response stood at 47 % Bound.

Still in this experiment, the particulars now being: Dsup/Nucleosome 4.5, mononucleosome, 5S rDNA sequence (147 bp), parent: 95.
Turning to chain 1 R363E R364E R367E, the response is 69 % Bound.
